The values below come from paper PMC9538160.

The experiment deals with Human recombinant p65 protein (SinoBiological 12054-H09E) (human) (UniProt Q04206). The experiment is described as follows: BLI; Forte-Bio Octet Red; anti-p65 Ab (5 μg/mL) captured on Protein A biosensors, 25 μg/mL recombinant p65 bound to it, ICP22 in solution at 62.5, 125, 250, 500 or 1000 nM; PBS. A general note: BLI is a label-free optical method that tracks binding on a fibre tip over time.
Sequence of UniProt Q04206 (Q04206 whole entry, stated change not applied): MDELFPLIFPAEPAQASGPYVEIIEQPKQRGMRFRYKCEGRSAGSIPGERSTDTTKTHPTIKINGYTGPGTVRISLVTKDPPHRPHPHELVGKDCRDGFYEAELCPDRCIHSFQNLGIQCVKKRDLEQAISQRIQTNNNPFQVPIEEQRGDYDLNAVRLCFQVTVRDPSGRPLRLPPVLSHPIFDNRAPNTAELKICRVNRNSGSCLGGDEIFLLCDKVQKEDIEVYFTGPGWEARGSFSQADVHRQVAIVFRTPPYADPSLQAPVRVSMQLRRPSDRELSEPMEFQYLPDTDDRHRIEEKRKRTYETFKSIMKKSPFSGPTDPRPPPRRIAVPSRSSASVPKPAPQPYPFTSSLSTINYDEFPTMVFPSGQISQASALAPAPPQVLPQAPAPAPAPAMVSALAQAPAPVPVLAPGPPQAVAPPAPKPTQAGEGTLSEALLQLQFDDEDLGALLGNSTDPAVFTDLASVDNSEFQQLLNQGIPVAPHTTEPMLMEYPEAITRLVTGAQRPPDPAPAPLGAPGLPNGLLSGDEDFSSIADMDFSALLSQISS

As usually defined, the Kd is the free concentration of one partner at which half of the binding sites on the other are occupied at equilibrium, for simple one-to-one binding. In the case of “HA-tagged HSV-2 ICP22, purified (from UniProt P14379 1-197) (natural protein)”, the dissociation constant Kd amounted to 218 nM.
